± gives the standard deviation of the averaged measurements.

This data set in a line: total protein half-life in vivo (active degradation + dilution); higher = more stable protein.
The mark [1] stands for this setting: E. coli NCM3722 delta-clpP delta-lon delta-hslV, growth: N-lim chemostat, doubling time 6 h.
Setting [2] is: E. coli NCM3722 delta-clpP, growth: N-lim chemostat, doubling time 6 h.
Setting [3] is: E. coli NCM3722 delta-hslV, growth: N-lim chemostat, doubling time 6 h.
[4] abbreviates: E. coli NCM3722 delta-lon, growth: N-lim chemostat, doubling time 6 h.
Setting [5] is: E. coli NCM3722 delta-smpB, growth: N-lim chemostat, doubling time 6 h.
The mark [6] stands for this setting: wild type E. coli NCM3722, growth: C-lim chemostat, doubling time 3 h.
[7] abbreviates: wild type E. coli NCM3722, growth: C-lim chemostat, doubling time 6 h.
Setting [8] is: wild type E. coli NCM3722, growth: C-lim chemostat, doubling time 12 h.
[9] abbreviates: wild type E. coli NCM3722, growth: N-lim chemostat, doubling time 6 h.
Setting [10] is: wild type E. coli NCM3722, growth: N-lim chemostat, doubling time 12 h.
[11] abbreviates: wild type E. coli NCM3722, growth: P-lim chemostat, doubling time 6 h.
Where [12] appears, read: wild type E. coli NCM3722, growth: P-lim chemostat, doubling time 12 h.

Consider “MKQTQRHNGIIELVKQQGYVSTEELVEHFSVSPQTIRRDLNELAEQNLILRHHGGAALPSSSVNTPWHDRKATQTEEKERIARKVAEQIPNGSTLFIDIGTTPEAVAHALLNHSNLRIVTNNLNVANTLMVKEDFRIILAGGELRSRDGGIIGEATLDFISQFRLDFGILGISGIDSDGSLLEFDYHEVRTKRAIIENSRHVMLVVDHSKFGRNAMVNMGSISMVDAVYTDAPPPVSVMQVLTDHHIQLELC [P0ACL0]”, for which the “total protein half-life in vivo” value by setting is: under setting [1], 6.303 ± 0.03 h; under setting [2], 5.91 ± 0.36 h; under setting [3], 5.156 ± 0.034 h; under setting [4], 5.78 ± 0.11 h; under setting [5], 5.52 ± 0.89 h; under setting [6], 2.84 ± 0.11 h. For the same sequence, the “total protein half-life in vivo” value under setting [7] is 5.9 ± 0.41 h; the “total protein half-life in vivo” value under setting [8] worked out at 10.73 ± 0.031 h; the “total protein half-life in vivo” value under setting [9] was 5.84 ± 0.25 h; the “total protein half-life in vivo” value under setting [10] was 10.323 ± 0.00092 h; the “total protein half-life in vivo” value under setting [11] was 5.28 ± 0.33 h; the “total protein half-life in vivo” value under setting [12] turned out to be 11.3 ± 0.63 h.

Regarding “MKNIRYIDKKDVENLIENKISDDVIIFLSGPTSQKTPLSVLRTKDIIAVNGSAQYLLSNNIVPFIYVLTDVRFLHQRRDDFYKFSQRSRYTIVNVDVYEHASKEDKLYILQNCLVLRSFYRREKGGFIKKIKFNILRQIHKELLISVPLSKKGRLVGFCKDISLGYCSCHTIAFAAIQIAYSLKYARIICSGLDLTGSCSRFYDENKNPMPSELSRDLFKILPFFRFMHDNVKDINIYNLSDDTAISYDVIPFIKLQDISAEESKDMTRKKMQYRTSTDSYAN”, the “total protein half-life in vivo” value is, setting by setting: under setting [1], 5.01 ± 0.085 h; under setting [2], 4.65 ± 0.19 h; under setting [4], 3.32 ± 0.14 h; under setting [5], 3.714 ± 0.0057 h; under setting [6], 1.67 ± 0.44 h; under setting [7], 1.52 ± 0.34 h. For the same sequence, the “total protein half-life in vivo” value by setting is: under setting [8], 1.73 ± 0.45 h; under setting [9], 3.52 h; under setting [10], 6.11 ± 0.77 h; under setting [11], 1.84 ± 0.14 h; under setting [12], 4.15 ± 0.71 h.

With “MSGAFNNDGRGISPLIATSWERCNKLMKRETWNVPHQAQGVTFASIYRRKKAMLTLGQAALEDAWEYMAPRECALFILDETACILSRNGDPQTLQQLSALGFNDGTYCAEGIIGTCALSLAAISGQAVKTMADQHFKQVLWNWAFCATPLFDSKGRLTGTIALACPVEQTTAADLPLTLAIAREVGNLLLTDSLLAETNRHLNQLNALLESMDDGVISWDEQGNLQFINAQAARVLRLDATASQGRAITELLTLPAVLQQAIKQAHPLKHVEATFESQHQFIDAVITLKPIIETQGTSFILLLHPVEQMRQLMTSQLGKVSHTFAHMPQDDPQTRRLIHFGRQAARSSFPVLLCGEEGVGKALLSQAIHNESERAAGPYIAVNCELYGDAALAEEFIGGDRTDNENGRLSRLELAHGGTLFLEKIEYLAVELQSALLQVIKQGVITRLDARRLIPIDVKVIATTTADLAMLVEQNRFSRQLYYALHAFEITIPPLRMRRGSIPALVNNKLRSLEKRFSTRLKIDDDALARLVSCAWPGNDFELYSVIENLALSSDNGRIRVSDLPEHLFTEQATDDVSATRLSTSLSFAEVEKEAIINAAQVTGGRIQEMSALLGIGRTTLWRKMKQHGIDAGQFKRRV”, the “total protein half-life in vivo” value is, setting by setting: under setting [1], 6.1 ± 0.41 h; under setting [2], 4.96 h; under setting [3], 3.96 h; under setting [5], 4.08 ± 0.059 h; under setting [6], 2.56 ± 0.055 h; under setting [7], 4.31 ± 1 h. Moreover, the “total protein half-life in vivo” value by setting is: under setting [8], 9.42 ± 0.77 h; under setting [9], 4.53 ± 0.17 h; under setting [10], 8.2 ± 0.45 h; under setting [11], 4.11 ± 0.61 h; under setting [12], 7.3 ± 0.38 h.

“MKLSTCCAALLLALASPAVLAAPGSCERIQSDISQRIINNGVPESSFTLSIVPNDQVDQPDSQVVGHCANDTHKILYTRTTSGNVSAPAQSSQDGAPAEPQ”: the “total protein half-life in vivo” value by setting is: under setting [2], 6.13 h; under setting [4], 6.79 h; under setting [5], 4.61 h; under setting [6], 3.25 h; under setting [7], 6.33 h; under setting [9], 5.52 h. Further, the “total protein half-life in vivo” value was 11.6 ± 1.9 h under setting [10], 5.94 ± 0.1 h under setting [11] and above 16 h under setting [12].

On to “MTGKKRSASSSRWLQEHFSDKYVQQAQKKGLRSRAWFKLDEIQQSDKLFKPGMTVVDLGAAPGGWSQYVVTQIGGKGRIIACDLLPMDPIVGVDFLQGDFRDELVMKALLERVGDSKVQVVMSDMAPNMSGTPAVDIPRAMYLVELALEMCRDVLAPGGSFVVKVFQGEGFDEYLREIRSLFTKVKVRKPDSSRARSREVYIVATGRKP [P0C0R7]”, for which the “total protein half-life in vivo” value reads like this: under setting [1], 5.17 ± 0.46 h; under setting [2], 3.946 ± 0.035 h; under setting [3], 4.42 ± 0.32 h; under setting [4], 4.55 ± 0.18 h; under setting [5], 4.52 ± 0.28 h; under setting [6], 2.81 ± 0.034 h. Moreover, the “total protein half-life in vivo” value under setting [7] stood at 5.87 ± 0.41 h; the “total protein half-life in vivo” value under setting [8] is 11.4 ± 1.5 h; the “total protein half-life in vivo” value under setting [9] came to 4.45 ± 0.14 h; the “total protein half-life in vivo” value under setting [10] turned out to be 7.904 ± 0.057 h; the “total protein half-life in vivo” value under setting [11] was 5.13 ± 0.14 h; the “total protein half-life in vivo” value under setting [12] was determined as 8.89 ± 0.018 h.

The values are drawn from the supplement of paper PMC11246515.
